These results are taken from patent US20250368745A1 (published 2025).

Assay [1] deals with T1, human IL-18BP (human, UniProt O95998 31-194).
T1 construct: UniProt printed as 095998; also called hIL-18BP
T1 sequence: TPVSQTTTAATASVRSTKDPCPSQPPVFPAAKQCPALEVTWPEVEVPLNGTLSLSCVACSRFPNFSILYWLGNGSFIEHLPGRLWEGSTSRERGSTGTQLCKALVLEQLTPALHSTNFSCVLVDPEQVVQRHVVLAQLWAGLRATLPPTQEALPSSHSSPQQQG
Put plainly: BLI, apparent KD. (Biolayer interferometry detects binding as a change in optical thickness at a sensor tip.)

The next assay has as its target T2, cynomolgus IL-18BP (cynomolgus monkey).
T2 construct: also called cyno IL-18BP; cyIL-18BP
T2 chain: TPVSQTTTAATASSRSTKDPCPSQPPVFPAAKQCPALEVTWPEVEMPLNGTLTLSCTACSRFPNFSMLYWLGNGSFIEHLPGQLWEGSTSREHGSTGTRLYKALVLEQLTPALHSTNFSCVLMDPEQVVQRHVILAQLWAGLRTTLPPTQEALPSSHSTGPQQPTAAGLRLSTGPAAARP
Put plainly: BLI, apparent KD.

Assay [2] concerns the target T3, human IL-18BP (human, UniProt O95998 31-194).
T3 construct: also called hIL-18BP; Mature Human Isoform A
T3 sequence: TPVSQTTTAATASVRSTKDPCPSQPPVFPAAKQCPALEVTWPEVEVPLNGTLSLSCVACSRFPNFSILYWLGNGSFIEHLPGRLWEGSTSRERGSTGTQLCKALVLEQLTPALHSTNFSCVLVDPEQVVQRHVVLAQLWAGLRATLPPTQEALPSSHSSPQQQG
Put plainly: BLI, apparent KD, one conc.

B1: SA301a HC-H52D (antibody, name in Kabat numbering, V domains shown)
VH: QVQLQESGPGLVKPSQTLSLTCTVSGYSITSDYNSHWIRQPPGKGLEWIGYIDYSGSTNYNPSLKSRVTISRDTSKNQFSLKLSSVTAADTAVYYCARNYGSIYVNYFDYWGQGTLVTVSS
VL: EIVLTQSPATLSLSPGERATLSCSASSSVSYMYWYQQKPGQAPRPLIYRTSNLASGIPARFSGSGSGTDFTLTISSLEPEDFAVYYCQQYHSYPTFGGGTKVEIK
notes: IgG1 kappa
As for B1, the Kd with human IL-18BP [1] is 350 pM; with cynomolgus IL-18BP it was 910 pM.

B2: SA301a light chain variant V29D (antibody, V domains shown)
VH: QVQLQESGPGLVKPSQTLSLTCTVSGYSITSDYNSHWIRQPPGKGLEWIGYIHYSGSTNYNPSLKSRVTISRDTSKNQFSLKLSSVTAADTAVYYCARNYGSIYVNYFDYWGQGTLVTVSS
VL: EIVLTQSPATLSLSPGERATLSCSASSSDSYMYWYQQKPGQAPRPLIYRTSNLASGIPARFSGSGSGTDFTLTISSLEPEDFAVYYCQQYHSYPTFGGGTKVEIK
Consider B2, for which the Kd with human IL-18BP [2] worked out at 430 pM.

B3: SA301a light chain variant V29Y (antibody, V domains shown)
VH: QVQLQESGPGLVKPSQTLSLTCTVSGYSITSDYNSHWIRQPPGKGLEWIGYIHYSGSTNYNPSLKSRVTISRDTSKNQFSLKLSSVTAADTAVYYCARNYGSIYVNYFDYWGQGTLVTVSS
VL: EIVLTQSPATLSLSPGERATLSCSASSSYSYMYWYQQKPGQAPRPLIYRTSNLASGIPARFSGSGSGTDFTLTISSLEPEDFAVYYCQQYHSYPTFGGGTKVEIK
B3: the Kd with human IL-18BP [2] amounted to 400 pM.

B4: SA301a light chain variant V29G (antibody, V domains shown)
VH: QVQLQESGPGLVKPSQTLSLTCTVSGYSITSDYNSHWIRQPPGKGLEWIGYIHYSGSTNYNPSLKSRVTISRDTSKNQFSLKLSSVTAADTAVYYCARNYGSIYVNYFDYWGQGTLVTVSS
VL: EIVLTQSPATLSLSPGERATLSCSASSSGSYMYWYQQKPGQAPRPLIYRTSNLASGIPARFSGSGSGTDFTLTISSLEPEDFAVYYCQQYHSYPTFGGGTKVEIK
With B4, the Kd with human IL-18BP [2] is 410 pM.

B5: SA301a light chain variant V29A (antibody, V domains shown)
VH: QVQLQESGPGLVKPSQTLSLTCTVSGYSITSDYNSHWIRQPPGKGLEWIGYIHYSGSTNYNPSLKSRVTISRDTSKNQFSLKLSSVTAADTAVYYCARNYGSIYVNYFDYWGQGTLVTVSS
VL: EIVLTQSPATLSLSPGERATLSCSASSSASYMYWYQQKPGQAPRPLIYRTSNLASGIPARFSGSGSGTDFTLTISSLEPEDFAVYYCQQYHSYPTFGGGTKVEIK
B5: the Kd with human IL-18BP [2] came to 400 pM.

B6: SA301a light chain variant V29M (antibody, V domains shown)
VH: QVQLQESGPGLVKPSQTLSLTCTVSGYSITSDYNSHWIRQPPGKGLEWIGYIHYSGSTNYNPSLKSRVTISRDTSKNQFSLKLSSVTAADTAVYYCARNYGSIYVNYFDYWGQGTLVTVSS
VL: EIVLTQSPATLSLSPGERATLSCSASSSMSYMYWYQQKPGQAPRPLIYRTSNLASGIPARFSGSGSGTDFTLTISSLEPEDFAVYYCQQYHSYPTFGGGTKVEIK
With B6, the Kd in the assay with human IL-18BP [2] came out at 350 pM.

B7: SA301a light chain variant V29N (antibody, V domains shown)
VH: QVQLQESGPGLVKPSQTLSLTCTVSGYSITSDYNSHWIRQPPGKGLEWIGYIHYSGSTNYNPSLKSRVTISRDTSKNQFSLKLSSVTAADTAVYYCARNYGSIYVNYFDYWGQGTLVTVSS
VL: EIVLTQSPATLSLSPGERATLSCSASSSNSYMYWYQQKPGQAPRPLIYRTSNLASGIPARFSGSGSGTDFTLTISSLEPEDFAVYYCQQYHSYPTFGGGTKVEIK
For the molecule B7, the Kd with human IL-18BP [2] is 440 pM.

B8: SA301a HC-H52S (antibody, name in Kabat numbering, V domains shown)
VH: QVQLQESGPGLVKPSQTLSLTCTVSGYSITSDYNSHWIRQPPGKGLEWIGYISYSGSTNYNPSLKSRVTISRDTSKNQFSLKLSSVTAADTAVYYCARNYGSIYVNYFDYWGQGTLVTVSS
VL: EIVLTQSPATLSLSPGERATLSCSASSSVSYMYWYQQKPGQAPRPLIYRTSNLASGIPARFSGSGSGTDFTLTISSLEPEDFAVYYCQQYHSYPTFGGGTKVEIK
notes: IgG1 kappa
In the case of B8, the Kd was 630 pM with human IL-18BP [1] and 1160 pM in the assay with cynomolgus IL-18BP.

B9: SA301a HC-I51A (antibody, name in Kabat numbering, V domains shown)
VH: QVQLQESGPGLVKPSQTLSLTCTVSGYSITSDYNSHWIRQPPGKGLEWIGYAHYSGSTNYNPSLKSRVTISRDTSKNQFSLKLSSVTAADTAVYYCARNYGSIYVNYFDYWGQGTLVTVSS
VL: EIVLTQSPATLSLSPGERATLSCSASSSVSYMYWYQQKPGQAPRPLIYRTSNLASGIPARFSGSGSGTDFTLTISSLEPEDFAVYYCQQYHSYPTFGGGTKVEIK
notes: IgG1 kappa
Turning to B9, the Kd in the assay with human IL-18BP [1] was found to be 730 pM; with cynomolgus IL-18BP, 810 pM.

B10: SA301a HC-H52G (antibody, name in Kabat numbering, V domains shown)
VH: QVQLQESGPGLVKPSQTLSLTCTVSGYSITSDYNSHWIRQPPGKGLEWIGYIGYSGSTNYNPSLKSRVTISRDTSKNQFSLKLSSVTAADTAVYYCARNYGSIYVNYFDYWGQGTLVTVSS
VL: EIVLTQSPATLSLSPGERATLSCSASSSVSYMYWYQQKPGQAPRPLIYRTSNLASGIPARFSGSGSGTDFTLTISSLEPEDFAVYYCQQYHSYPTFGGGTKVEIK
notes: IgG1 kappa
As for B10, the Kd with human IL-18BP [1] was 1680 pM; with cynomolgus IL-18BP, 1660 pM.

B11: SA301a HC-I51D (antibody, name in Kabat numbering, V domains shown)
VH: QVQLQESGPGLVKPSQTLSLTCTVSGYSITSDYNSHWIRQPPGKGLEWIGYDHYSGSTNYNPSLKSRVTISRDTSKNQFSLKLSSVTAADTAVYYCARNYGSIYVNYFDYWGQGTLVTVSS
VL: EIVLTQSPATLSLSPGERATLSCSASSSVSYMYWYQQKPGQAPRPLIYRTSNLASGIPARFSGSGSGTDFTLTISSLEPEDFAVYYCQQYHSYPTFGGGTKVEIK
notes: IgG1 kappa
In the case of B11, the Kd was determined as 1990 pM with human IL-18BP [1] and 2170 pM in the assay with cynomolgus IL-18BP.

B12: SA301a HC-H52I (antibody, name in Kabat numbering, V domains shown)
VH: QVQLQESGPGLVKPSQTLSLTCTVSGYSITSDYNSHWIRQPPGKGLEWIGYIIYSGSTNYNPSLKSRVTISRDTSKNQFSLKLSSVTAADTAVYYCARNYGSIYVNYFDYWGQGTLVTVSS
VL: EIVLTQSPATLSLSPGERATLSCSASSSVSYMYWYQQKPGQAPRPLIYRTSNLASGIPARFSGSGSGTDFTLTISSLEPEDFAVYYCQQYHSYPTFGGGTKVEIK
notes: IgG1 kappa
In the case of B12, the Kd with human IL-18BP [1] was found to be 530 pM; with cynomolgus IL-18BP it was 1720 pM.

B13: SA301a HC-H52N (antibody, name in Kabat numbering, V domains shown)
VH: QVQLQESGPGLVKPSQTLSLTCTVSGYSITSDYNSHWIRQPPGKGLEWIGYINYSGSTNYNPSLKSRVTISRDTSKNQFSLKLSSVTAADTAVYYCARNYGSIYVNYFDYWGQGTLVTVSS
VL: EIVLTQSPATLSLSPGERATLSCSASSSVSYMYWYQQKPGQAPRPLIYRTSNLASGIPARFSGSGSGTDFTLTISSLEPEDFAVYYCQQYHSYPTFGGGTKVEIK
notes: IgG1 kappa
For the molecule B13, the Kd in the assay with human IL-18BP [1] was 1040 pM; with cynomolgus IL-18BP, 2830 pM.

B14: SA301a HC-H52V (antibody, name in Kabat numbering, V domains shown)
VH: QVQLQESGPGLVKPSQTLSLTCTVSGYSITSDYNSHWIRQPPGKGLEWIGYIVYSGSTNYNPSLKSRVTISRDTSKNQFSLKLSSVTAADTAVYYCARNYGSIYVNYFDYWGQGTLVTVSS
VL: EIVLTQSPATLSLSPGERATLSCSASSSVSYMYWYQQKPGQAPRPLIYRTSNLASGIPARFSGSGSGTDFTLTISSLEPEDFAVYYCQQYHSYPTFGGGTKVEIK
notes: IgG1 kappa
B14: the Kd came out at 340 pM in the assay with human IL-18BP [1] and 880 pM with cynomolgus IL-18BP.

B15: SA301a HC-H52R (antibody, name in Kabat numbering, V domains shown)
VH: QVQLQESGPGLVKPSQTLSLTCTVSGYSITSDYNSHWIRQPPGKGLEWIGYIRYSGSTNYNPSLKSRVTISRDTSKNQFSLKLSSVTAADTAVYYCARNYGSIYVNYFDYWGQGTLVTVSS
VL: EIVLTQSPATLSLSPGERATLSCSASSSVSYMYWYQQKPGQAPRPLIYRTSNLASGIPARFSGSGSGTDFTLTISSLEPEDFAVYYCQQYHSYPTFGGGTKVEIK
notes: IgG1 kappa
Regarding B15, the values for the Kd with human IL-18BP [1] and with cynomolgus IL-18BP were 1360 pM and 1550 pM, respectively.
